Experimental findings from the supplement of paper PMC11908140 are described below.

B1: library; numbered along this chain (parent)
chain: MRKPRAAVGSGHRKQAASQEGRQKHAKNNSQAKPSACDGLARQPEEVVLQASVSSYHLFRDVAEVTAFRGSLLSWYDQEKRDLPWRRRAEDEMDLDRRAYAVWVSEVMLQQTQVATVINYYTGWMQKWPTLQDLASASLEEVNQLWAGLGYYSRGRRLQEGARKVVEELGGHMPRTAETLQQLLPGVGRYTAGAIASIAFGQATGVVDGNVARVLCRVRAIGADPSSTLVSQQLWGLAQQLVDPARPGDFNQAAMELGATVCTPQRPLCSQCPVESLCRARQRVEQEQLLASGSLSGSPDVEECAPNTGQCHLCLPPSEPWDQTLGVVNFPRKASRKPPREESSATCVLEQPGALGAQILLVQRPNSGLLAGLWEFPSVTWEPSEQLQRKALLQELQRWAGPLPATHLRHLGEVVHTFSHIKLTYQVYGLALEGQTPVTTVPPGARWLTQEEFHTAAVSTAMKKVFRVYQGQQPGTCMGSKRSQVSSPCSRKKPRMGQQVLDNFFRSHISTDAHSLNSAAQ
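Further: cells sorted at 72 h after reporter transfection.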

The data set covers variants of B1. Kind of data set: 8OG:A repair function score (normalized; synonymous = 0, nonsense = -1) (normalized log-likelihood score); higher = more repair activity (WT-like). The settings on record: with 8OG:A DNA repair reporter (GFP) in HEK-293 MUTYH KO cells. An outline of the steps:
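Per-tile Rosace fitness scores were converted to a normalized repair function score anchored on synonymous and nonsense distributions. That scale puts synonymous medians at 0 and nonsense medians at -1. Variants with starting counts under 300 counts per million were discarded. Input came from sorting viable mCherry+ MUTYH knockout HEK-293 cells, carrying lentiviral MUTYH cDNA NNN codon-scan libraries in 10 pg/ml doxycycline and an 8OG:A GFP repair reporter, into GFP+ and GFP− bins at 72 h, three replicates per tile, followed by tile amplicon sequencing.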
In the case of V485Q, the “8OG:A repair function score” value is -0.0322.
The same measure for R86A: -0.934.
The same measure for T191L: -0.585.
The same measure for Q286P: -0.093; for Q521G: -0.018; for N251H: -0.943.
Consider R175Y, for which the “8OG:A repair function score” value is -0.175.
In the case of S74R, the “8OG:A repair function score” value amounted to 0.00425.
With V166L, the “8OG:A repair function score” value is -0.161.
In the case of S343A, the “8OG:A repair function score” value came out at 0.0302.
For the variant A513D, the “8OG:A repair function score” value is 0.0137.
Under A513N stands 0.0128.
For the variant T417H, the “8OG:A repair function score” value is -0.254.
The same measure for T417K: 0.36; for G353Y: -0.16.
F68V: the “8OG:A repair function score” value was -0.0136.
Under Q394F stands -0.00248; under L516V, 0.0206.
The same measure for S335I: -0.000462; for S335T: 0.005.
Consider S335G, for which the “8OG:A repair function score” value is -0.02.
As to S335M, the “8OG:A repair function score” value is -0.0531.
Under E341R stands 0.0117; under L448V, -0.117.
The same measure for L448C: -0.0248; for E451L: -0.179; for S419I: -0.542.
The same measure for A253M: -1.03; for A253T: -0.994.
Consider H416I, for which the “8OG:A repair function score” value is -0.188.
Under V284T stands 0.0102.
With A431C, the “8OG:A repair function score” value is -0.0248.
In the case of E140N, the “8OG:A repair function score” value was -0.0981.
The same measure for V214H: -0.795.
Under T476Y stands -0.0187; under E342R, 0.0113; under E342D, 0.0832.
Under R506K stands 0.0152; under G123F, -0.0297.
With V261P, the “8OG:A repair function score” value was -0.891.
As to R156C, the “8OG:A repair function score” value was -0.162.
As to A345P, the “8OG:A repair function score” value is -0.334.
Under E90M stands 0.0018; under Q265R, 0.00654.
The same measure for C347P: -1.08.
Under Q484M stands 0.0126.
Consider I198G, for which the “8OG:A repair function score” value is -1.05.
As for R279S, the “8OG:A repair function score” value was -0.377.
For R279V, the “8OG:A repair function score” value is -0.344.
Turning to S510H, the “8OG:A repair function score” value turned out to be 0.0212.
Under L369C stands -0.0782.
On to L369V, for which the “8OG:A repair function score” value was -0.297.
The same measure for T436R: -0.124; for A203Y: -0.245; for G444W: -0.444.
The same measure for C262W: -0.941; for R97V: 0.00683.
Under V415F stands -0.391; under L237F, -0.257.
In the case of Q252E, the “8OG:A repair function score” value is -0.386.
The same measure for F330P: -1.04; for F330H: -0.37.
The same measure for H454Y: -0.087; for V165N: -1.08; for L396Q: -0.673.
Under Y100D stands -1.79; under A99R, -1.8; under L134A, -0.0633.
With D300G, the “8OG:A repair function score” value was -0.148.
S515Q: the “8OG:A repair function score” value is -0.00958.
As to S515D, the “8OG:A repair function score” value is -0.0425.
On to R281P, for which the “8OG:A repair function score” value was -0.443.
Under N307V stands 0.0207.
For N307M, the “8OG:A repair function score” value was -0.145.
The same measure for L387H: -0.744; for T380I: -0.128.
As to C269S, the “8OG:A repair function score” value is -1.28.
For the variant V414L, the “8OG:A repair function score” value was -0.0973.
For the variant V414P, the “8OG:A repair function score” value is -1.01.
Under V414G stands -0.649.
Under R189T stands -0.184; under L109V, -0.838.
The same measure for W85K: -3.
